2 molecules from PMC8219681, “Inhibition of MRN activity by a telomere protein motif” (Nature Communications, 2021) can be followed below.

Experiment [1] addresses T1, Xrs2 (S. cerevisiae, FLAG-tagged at the C terminus) (S. cerevisiae, UniProt P33301 1-854).
T1 construct: Xrs2, Saccharomyces cerevisiae; also called Xrs2-FLAG; not shown: FLAG, C-terminal, kept
T1 sequence (looked up): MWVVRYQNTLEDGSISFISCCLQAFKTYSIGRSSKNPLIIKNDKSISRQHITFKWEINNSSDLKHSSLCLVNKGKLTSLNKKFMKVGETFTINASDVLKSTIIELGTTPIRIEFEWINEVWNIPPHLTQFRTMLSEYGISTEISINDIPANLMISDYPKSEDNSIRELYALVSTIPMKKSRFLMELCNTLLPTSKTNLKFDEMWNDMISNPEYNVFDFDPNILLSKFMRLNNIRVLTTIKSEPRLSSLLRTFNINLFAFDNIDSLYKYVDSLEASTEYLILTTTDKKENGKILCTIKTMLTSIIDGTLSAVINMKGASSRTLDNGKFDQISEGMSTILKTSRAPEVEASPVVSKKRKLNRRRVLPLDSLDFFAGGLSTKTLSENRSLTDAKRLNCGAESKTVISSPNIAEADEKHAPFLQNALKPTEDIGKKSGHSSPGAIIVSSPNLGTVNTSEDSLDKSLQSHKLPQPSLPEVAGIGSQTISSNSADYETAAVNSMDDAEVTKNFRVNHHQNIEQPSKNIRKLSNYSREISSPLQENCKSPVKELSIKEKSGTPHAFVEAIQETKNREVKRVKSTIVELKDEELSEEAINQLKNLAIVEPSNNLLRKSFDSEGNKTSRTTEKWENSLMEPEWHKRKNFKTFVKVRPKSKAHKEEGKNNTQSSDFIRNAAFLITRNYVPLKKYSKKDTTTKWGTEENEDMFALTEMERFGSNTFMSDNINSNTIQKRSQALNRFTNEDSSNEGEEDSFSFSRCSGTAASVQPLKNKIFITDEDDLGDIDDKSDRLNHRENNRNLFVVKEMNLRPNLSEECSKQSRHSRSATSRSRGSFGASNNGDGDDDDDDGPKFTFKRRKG
Kind of experiment: pull-down; MBP-Rif2 or MBP-Rif2-min (~5 ug, from Sf9 lysate) immobilised on amylose resin and washed; 1 ug Mre11, 500 ng Rad50 or 1 ug Xrs2 added for 1 h in 50 mM Tris-HCl pH 7.5, 200 mM NaCl, 0.2% NP40, 2 mM EDTA; eluted with 20 mM maltose; Western blot. The conditions noted are these: both partners purified.

For experiment [2], the target named is T2, Rad50S (S. cerevisiae Rad50-K81I, FLAG-tagged at the C terminus) (S. cerevisiae, UniProt P12753 1-1312, K81I).
T2 construct: Rad50, Saccharomyces cerevisiae, K81I
T2 sequence (looked up): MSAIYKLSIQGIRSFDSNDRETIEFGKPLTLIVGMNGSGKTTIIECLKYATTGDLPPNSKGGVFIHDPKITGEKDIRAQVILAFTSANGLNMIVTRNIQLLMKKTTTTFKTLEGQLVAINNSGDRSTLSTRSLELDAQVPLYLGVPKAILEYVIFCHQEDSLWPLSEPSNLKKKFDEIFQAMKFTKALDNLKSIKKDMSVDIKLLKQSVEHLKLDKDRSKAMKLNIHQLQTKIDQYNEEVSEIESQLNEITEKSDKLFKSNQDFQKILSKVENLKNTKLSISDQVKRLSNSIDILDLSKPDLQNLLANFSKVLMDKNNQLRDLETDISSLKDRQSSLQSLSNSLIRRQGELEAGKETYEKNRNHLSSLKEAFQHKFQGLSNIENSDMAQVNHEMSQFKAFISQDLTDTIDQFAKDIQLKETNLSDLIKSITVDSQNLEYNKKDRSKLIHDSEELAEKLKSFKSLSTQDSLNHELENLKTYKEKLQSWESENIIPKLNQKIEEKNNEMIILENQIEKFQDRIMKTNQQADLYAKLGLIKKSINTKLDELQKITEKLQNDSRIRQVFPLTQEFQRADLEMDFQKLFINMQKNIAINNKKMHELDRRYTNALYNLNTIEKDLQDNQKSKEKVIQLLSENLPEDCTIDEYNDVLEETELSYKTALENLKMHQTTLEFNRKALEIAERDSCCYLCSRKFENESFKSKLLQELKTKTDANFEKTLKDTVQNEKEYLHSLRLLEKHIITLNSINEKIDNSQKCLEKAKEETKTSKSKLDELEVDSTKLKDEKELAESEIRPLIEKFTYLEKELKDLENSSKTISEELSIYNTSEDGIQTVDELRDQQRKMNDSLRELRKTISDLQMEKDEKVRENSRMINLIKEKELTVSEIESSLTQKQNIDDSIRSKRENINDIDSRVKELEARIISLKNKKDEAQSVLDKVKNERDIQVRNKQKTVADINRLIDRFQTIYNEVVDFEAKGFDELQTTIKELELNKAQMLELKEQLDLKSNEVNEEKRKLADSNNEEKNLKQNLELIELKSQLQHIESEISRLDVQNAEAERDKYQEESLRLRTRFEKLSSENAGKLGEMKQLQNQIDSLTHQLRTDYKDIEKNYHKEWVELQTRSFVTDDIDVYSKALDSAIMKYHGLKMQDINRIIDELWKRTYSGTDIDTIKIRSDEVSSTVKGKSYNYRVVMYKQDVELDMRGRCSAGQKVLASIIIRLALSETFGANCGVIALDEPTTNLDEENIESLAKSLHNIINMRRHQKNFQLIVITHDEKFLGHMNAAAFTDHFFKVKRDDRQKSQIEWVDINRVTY
Kind of experiment: pull-down; MBP-Rif2 or MBP-Rif2-min immobilised on amylose resin, washed with 1 M NaCl buffer then 150 mM NaCl; 750 ng Rad50 or Rad50-K81I added for 1 h at 4 °C in wash buffer with 150 mM NaCl; Western blot with anti-Rad50. Particulars: both partners purified. A general note: A western blot detects proteins with antibodies after separation by electrophoresis.

Where a chain is given by its changes, count along the chain named. Names may count otherwise.

B1: MBP-Rif2 (S. cerevisiae Rif2, wild type) (natural protein, UniProt Q06208 1-395, looked up)
chain: MEHVDSDFAPIRRSKKVVDSDKIVKAISDDLEQKNFTVLRKLNLVPIKKSVSSPKVCKPSPVKERVDHVFYQKFKSMALQELGTNYLSISYVPSLSKFLSKNLRSMKNCIVFFDKVEHIHQYAGIDRAVSETLSLVDINVVIIEMNDYLMKEGIQSSKSKECIESMGQASYSGQLDFEASEKPSNHTSDLMMMVMRKINNDESIDHIVYFKFEQLDKLSTSTIIEPSKLTEFINVLSVLEKSNNIAFKVLIYSNNVSISSLLSTSLKKKLNTKYTVFEMPILTCAQEQEYLKKMIKFTFDSGSKLLQSYNSLVTCQLNNKESNLAIFFEFLKVFPHPFTYLFNAYTEIIVQSRTFDELLDKIRNRLTIKNYPHSAYNFKKNQRLPLKLTRKVHDR
notes: Rif2, Saccharomyces cerevisiae, full length, expressed from the vector pFB-MBP-Rif2-his; MBP was cleaved with PreScission protease only after elution from the resin; N-terminal place of MBP is read from the construct's name MBP-Rif2-his; also called ScRif2; not shown: MBP, N-terminal, kept
Take B1: the binding result in experiment [1] and in experiment [2] was “binds” in each case.

B2: MBP-Rif2-min (S. cerevisiae Rif2 F8E P10N) (natural protein, UniProt Q06208 1-395, looked up)
chain: B1 chain with F8E, P10N
notes: Rif2, Saccharomyces cerevisiae, full length, F8E P10N, expressed from the vector pFB-MBP-Rif2-min-his; MBP was cleaved with PreScission protease only after elution from the resin; N-terminal place of MBP is read from the construct's name; also called mutant Rif2; not shown: MBP, N-terminal, kept
With B2, the binding result in experiment [1] and in experiment [2] was “binds” each time.
